Laboratory results taken from PMC3615468 (Nature Communications, 2013).

Molecular target: the molecule itself
Assay: SEC

B1: Recombinant CIDE-N domain of mouse Fsp27 (a.a. 39-119) (domain or fragment, UniProt P56198 39-119, looked up)
chain: TPRARPCRVSTADRKVRKGIMAHSLEDLLNKVQDILKLKDKPFSLVLEEDGTIVETEEYFQALAKDTMFMVLLKGQKWKPP
For B1, the “stoichiometry N” value was 2.
